# Reference: the RNAGym collection of RNA variant scans (doi:10.1021/acssynbio.7b00057)
# B1: Pistol ribozyme (parent)
# chain: GGGUCGUUGUUCCAUAAUCGCGUGGAUAUGGCACGCAAGUUUCUACCGGGCACCGUAAAUGUCCGACUGGAGCCGUUCGGGCGGCUAUAAACAGACCUCAGGCCCGAAGCGUGGCGGCACCUGCCGCCGGUGGUAAAAAAGAUCGGAAGAGCACACGUCU
# Variants of: B1
# Assay: aptazyme ON/OFF ratio, guanine; higher = stronger switching; co-transcriptional cleavage with and without guanine
row,Variant,aptazyme ON/OFF ratio
1,U7C U8G G9C U10C C12G C13A,1.43
2,U7C U8G G9C U10C C12G C13U,1.1
3,U7C U8G G9C U10C C12G C13G,1.09
4,U7C U8G G9C U11A C13A,1.17
5,U7C U8G G9C U11A C13G,1.06
6,U7C U8G G9C U11A C13U,1.26
7,U7C U8G G9C U10C U11G C12A C13U,1.05
8,U7C U8G G9C U10C U11G C12A C13G,1.06
9,U7C U8G G9C U10C U11G C12A C13A,1.12
10,U7C U8G G9C U11A C12A C13U,1.22
11,U7C U8G G9C U11A C12A C13A,1.15
12,U7C U8G G9C U11A C12A C13G,1.11
13,U7C U8G G9C U10A U11G C12G C13A,1.31
14,U7C U8G G9C U10A U11G C12G C13G,1.16
15,U7C U8G G9C U10A U11G C12G C13U,1.18
16,U7C U8G G9C U10G C12U C13U,1.35
17,U7C U8G G9C U10G C12U C13A,1.24
18,U7C U8G G9C U10G C12U C13G,1.14
19,U7C U8G G9C U10G U11A C12G,1.24
20,U7C U8G G9C U10G U11A C12A,1.34
21,U7C U8G G9C U10G U11A C12U,1.24
22,U7C U8G G9C U11C C12A C13A,1.12
23,U7C U8G G9C U11C C12A C13G,1.09
24,U7C U8G G9C U10C C13G,1.08

row,Variant,aptazyme ON/OFF ratio
1,U7C U8G G9C U10C C13A,1.06
2,U7C U8G G9C U10C C13U,1.71
3,U7C U8G G9C U10C U11G C13G,1.11
4,U7C U8G G9C U10C U11G C13U,1.19
5,U7C U8G G9C U10C U11G C13A,1.11
6,U7C U8G G9C U10G U11C C12G,1.25
7,U7C U8G G9C U10G U11C C12U,1.07
8,U7C U8G G9C U10G U11C C12A,1.24
9,U7C U8G G9C U10G C13A,1.25
10,U7C U8G G9C U10G C13G,1.2
11,U7C U8G G9C U10G C13U,1.47
12,U7C U8G G9C U10G U11A C12U C13G,1.27
13,U7C U8G G9C U10G U11A C12U C13A,1.38
14,U7C U8G G9C U10G U11A C12U C13U,1.27
15,U7C U8G G9C U10A U11G,1.18
16,U7C U8G G9C U10G U11A C12A C13U,1.23
17,U7C U8G G9C U10G U11A C12A C13G,1.21
18,U7C U8G G9C U10G U11A C12A C13A,1.31
19,U7C U8G G9C U10G C12G C13U,1.13
20,U7C U8G G9C U10G C12G C13G,1.12
21,U7C U8G G9C U10G C12G C13A,1.18
22,U7C U8G G9C U10C U11A C12G,1.07
23,U7C U8G G9C U10C U11A C12A,1.08
24,U7C U8G G9C U10C U11A C12U,1.09

row,Variant,aptazyme ON/OFF ratio
1,U7C U8G G9C U11A C12U,1.28
2,U7C U8G G9C U11A C12A,1.22
3,U7C U8G G9C U11A C12G,1.16
4,U7C U8G G9C U10C U11A C12A C13U,1.09
5,U7C U8G G9C U10C U11A C12A C13G,1.06
6,U7C U8G G9C U10C U11A C12A C13A,1.08
7,U7C U8G G9C U10C U11G C12G C13U,1.05
8,U7C U8G G9C U10C U11G C12G C13G,1.09
9,U7C U8G G9C U10C U11G C12G C13A,1.12
10,U7C U8G G9C U10C U11G C12U C13G,1.09
11,U7C U8G G9C U10C U11G C12U C13A,1.07
12,U7C U8G G9C U10C U11G C12U C13U,1.07
13,U7C U8G G9C U10G U11C C13A,1.25
14,U7C U8G G9C U10G U11C C13G,1.05
15,U7C U8G G9C U10G U11C C13U,1.07
16,U7C U8G G9C U10G U11C C12G C13A,1.31
17,U7C U8G G9C U10G U11C C12G C13G,1.22
18,U7C U8G G9C U10G U11C C12G C13U,1.24
19,U7C U8G G9C U10C U11A C13A,1.21
20,U7C U8G G9C U10C U11A C13U,1.21
21,U7C U8G G9C U10C U11A C13G,1.23
22,U7C U8G G9C U10C U11G C12A,1.03
23,U7C U8G G9C U10C U11G C12U,1.17
24,U7C U8G G9C U10C U11G C12G,1.09

row,Variant,aptazyme ON/OFF ratio
1,U7C U8G G9C U10C U11A C12U C13G,1.21
2,U7C U8G G9C U10C U11A C12U C13A,1.08
3,U7C U8G G9C U10C U11A C12U C13U,1.08
4,U7C U8G G9C U10C U11C,1.04
5,U7C U8G G9C U10C U11A,0.99
6,U7C U8G G9C U10C U11G,1.16
7,U7C U8G G9C U10G U11G C12A,1.18
8,U7C U8G G9C U10G U11G C12U,1.29
9,U7C U8G G9C U10G U11G C12G,1.13
10,U7C U8G G9C U11A C12G C13U,1.11
11,U7C U8G G9C U11A C12G C13G,1.13
12,U7C U8G G9C U11A C12G C13A,1.1
13,U7C U8G G9C U10G U11G C13U,1.11
14,U7C U8G G9C U10G U11G C13A,1.13
15,U7C U8G G9C U10G U11G C13G,1.1
16,U7C U8G G9C U10C U11C C12A,1.04
17,U7C U8G G9C U10C U11C C12U,1.04
18,U7C U8G G9C U10C U11C C12G,1.05
19,U7C U8G G9C U10C C12A C13G,1.1
20,U7C U8G G9C U10C C12A C13A,1.06
21,U7C U8G G9C U10C C12A C13U,1.06
22,U7C U8G G9C U10G U11A C12G C13A,1.24
23,U7C U8G G9C U10G U11A C12G C13G,1.21
24,U7C U8G G9C U10G U11A C12G C13U,1.24

row,Variant,aptazyme ON/OFF ratio
1,U7C U8G G9C U10G U11A C13U,1.16
2,U7C U8G G9C U10G U11A C13A,1.3
3,U7C U8G G9C U10G U11A C13G,1.19
4,U7C U8G G9C U10C C12U,1.27
5,U7C U8G G9C U10C C12G,1.08
6,U7C U8G G9C U10C C12A,1.07
7,U7C U8G G9C U10C U11A C12G C13G,1.17
8,U7C U8G G9C U10C U11A C12G C13A,1.1
9,U7C U8G G9C U10C U11A C12G C13U,1.12
10,U7C U8G G9C U10A U11G C12A C13G,1.19
11,U7C U8G G9C U10A U11G C12A C13A,1.08
12,U7C U8G G9C U10A U11G C12A C13U,1.18
13,U7C U8G G9C U10A U11G C12U C13U,1.18
14,U7C U8G G9C U10A U11G C12U C13A,1.16
15,U7C U8G G9C U10A U11G C12U C13G,1.12
16,U7C U8G G9C U10G U11C C12A C13G,1.16
17,U7C U8G G9C U10G U11C C12A C13A,1.31
18,U7C U8G G9C U10G U11C C12A C13U,1.35
19,U7C U8G G9C U10C U11C C12U C13A,1.04
20,U7C U8G G9C U10C U11C C12U C13U,1.03
21,U7C U8G G9C U10C U11C C12U C13G,1.04
22,U7C U8G G9C U10A U11G C13U,1.18
23,U7C U8G G9C U10A U11G C13A,1.19
24,U7C U8G G9C U10A U11G C13G,1.03

row,Variant,aptazyme ON/OFF ratio
1,U7C U8G G9C U10A U11G C12A,1.05
2,U7C U8G G9C U10A U11G C12G,1.26
3,U7C U8G G9C U10A U11G C12U,1.31
4,U7C U8G G9C U10C U11C C12G C13U,1.07
5,U7C U8G G9C U10C U11C C12G C13G,1.08
6,U7C U8G G9C U10C U11C C12G C13A,1.19
7,U7C U8G G9C U10G U11G C12A C13U,1.14
8,U7C U8G G9C U10G U11G C12A C13A,1.15
9,U7C U8G G9C U10G U11G C12A C13G,1.11
10,U7C U8G G9C U10G C12U,1.4
11,U7C U8G G9C U10G C12A,1.21
12,U7C U8G G9C U10G C12G,1.16
13,U7C U8G G9C U10C U11C C13A,1.03
14,U7C U8G G9C U10C U11C C13U,1.02
15,U7C U8G G9C U10C U11C C13G,1.03
16,U7C U8G G9C U10G C12A C13A,1.16
17,U7C U8G G9C U10G C12A C13U,1.26
18,U7C U8G G9C U10G C12A C13G,1.09
19,U7C U8G G9C U10G U11A,1.07
20,U7C U8G G9C U10G U11G,1.23
21,U7C U8G G9C U10G U11C,1.04
22,U7C U8G G9C U10G U11G C12G C13U,1.15
23,U7C U8G G9C U10G U11G C12G C13G,1.09
24,U7C U8G G9C U10G U11G C12G C13A,1.1

row,Variant,aptazyme ON/OFF ratio
1,U7C U8G G9C U10G U11G C12U C13G,1.09
2,U7C U8G G9C U10G U11G C12U C13U,1.11
3,U7C U8G G9C U10G U11G C12U C13A,1.06
4,U7C U8G G9C U10G U11C C12U C13U,1.21
5,U7C U8G G9C U10G U11C C12U C13G,1.25
6,U7C U8G G9C U10G U11C C12U C13A,1.26
7,U7C U8G G9C U11C C12A,2.71
8,U7C U8G G9C U10C C12U C13G,1.08
9,U7C U8G G9C U10C C12U C13A,1.05
10,U7C U8G G9C U10C C12U C13U,1.09
11,U7C U8G G9C U10A U11C C13U,1.01
12,U7C U8G G9C U10A U11C C13A,1.07
13,U7C U8G G9C U10A U11C C13G,1.04
14,U7C U8G G9C U10C U11C C12A C13G,1.04
15,U7C U8G G9C U10C U11C C12A C13A,1.03
16,U7C U8G G9C U10C U11C C12A C13U,1.02
17,U7C U8G G9C U11A,1.86
18,U7C U8G G9C U11C,1.18
19,U7C U8G G9C U10C,3.58
20,U7C U8G G9C U10G,1.47
21,U7C U8G G9C U11A C12U C13U,1.16
22,U7C U8G G9C U11A C12U C13A,1.19
23,U7C U8G G9C U11A C12U C13G,1.09
